In the supplement of paper PMC10065799, “High-throughput profiling of sequence recognition by tyrosine kinases and SH2 domains using bacterial peptide display” (eLife, 2023):

What was measured:
AncSZ = test: phosphorylation enrichment, bacterial display (enrichment ratio); higher = better substrate or ligand; peptides without Tyr show the background
EPHB1 = EPHB1 (UniProt P54762); test: as above
EPHB2 = EPHB2 (UniProt P29323); test: as above
FGFR1 = FGFR1 (UniProt P11362); test: as above
FGFR3 = FGFR3 (UniProt P22607); test: as above
Fer (mouse) = test: as above
Fes = Fes (UniProt P07332); test: as above
Fyn = Fyn (UniProt P06241); test: as above
Hck = Hck (UniProt P08631); test: as above
Jak2 = Jak2 (UniProt O60674); test: as above
MERTK = MERTK (UniProt Q12866); test: as above
c-Abl (mouse) = test: as above
c-Src = test: as above
Grb2 SH2 = Grb2 SH2 (UniProt P62993); test: SH2 binding enrichment of the phosphorylated peptide, bacterial display (enrichment ratio); higher = better substrate or ligand; peptides without Tyr show the background
SHP2-C SH2 = test: as above
c-Src SH2 = test: as above
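Throughout, for SH2 binding enrichment of the phosphorylated peptide, bacterial display: peptide library displayed on the E. coli surface as eCPX fusions, selected cells deep-sequenced, score is each peptide's frequency after selection divided by its frequency in the input.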
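Throughout, for phosphorylation enrichment, bacterial display: 11-residue human phosphosite peptides and single-mutation variants displayed on the E. coli surface, counted by deep sequencing, each peptide's frequency after selection divided by its frequency in the unselected input library; frequency after pTyr selection over input frequency; kinase dosed for 20-30% of maximal phosphorylation in three min.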

Fes, sequence (P07332 whole entry, looked up): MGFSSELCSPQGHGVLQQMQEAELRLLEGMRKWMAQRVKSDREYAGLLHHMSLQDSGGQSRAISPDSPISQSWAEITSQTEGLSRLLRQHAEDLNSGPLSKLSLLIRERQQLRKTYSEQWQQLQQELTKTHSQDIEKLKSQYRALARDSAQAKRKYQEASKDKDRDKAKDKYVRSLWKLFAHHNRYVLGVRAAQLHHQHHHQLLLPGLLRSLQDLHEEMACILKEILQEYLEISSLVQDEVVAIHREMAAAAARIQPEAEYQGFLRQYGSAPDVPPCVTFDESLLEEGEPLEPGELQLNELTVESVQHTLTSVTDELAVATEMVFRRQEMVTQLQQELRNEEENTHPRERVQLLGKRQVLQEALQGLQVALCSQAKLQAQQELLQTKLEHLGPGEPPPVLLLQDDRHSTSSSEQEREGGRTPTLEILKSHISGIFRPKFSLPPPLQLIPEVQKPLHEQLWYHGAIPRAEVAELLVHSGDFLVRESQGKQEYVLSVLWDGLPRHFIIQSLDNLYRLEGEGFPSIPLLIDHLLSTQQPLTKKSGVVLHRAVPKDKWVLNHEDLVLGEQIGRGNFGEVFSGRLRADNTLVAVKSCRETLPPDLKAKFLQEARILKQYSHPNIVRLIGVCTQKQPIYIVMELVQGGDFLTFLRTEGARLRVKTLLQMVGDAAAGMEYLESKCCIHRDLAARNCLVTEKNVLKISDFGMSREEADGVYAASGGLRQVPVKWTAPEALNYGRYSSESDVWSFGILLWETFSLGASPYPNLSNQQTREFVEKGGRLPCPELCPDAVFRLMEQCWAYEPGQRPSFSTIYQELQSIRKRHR
EPHB1, sequence (P54762 whole entry, looked up): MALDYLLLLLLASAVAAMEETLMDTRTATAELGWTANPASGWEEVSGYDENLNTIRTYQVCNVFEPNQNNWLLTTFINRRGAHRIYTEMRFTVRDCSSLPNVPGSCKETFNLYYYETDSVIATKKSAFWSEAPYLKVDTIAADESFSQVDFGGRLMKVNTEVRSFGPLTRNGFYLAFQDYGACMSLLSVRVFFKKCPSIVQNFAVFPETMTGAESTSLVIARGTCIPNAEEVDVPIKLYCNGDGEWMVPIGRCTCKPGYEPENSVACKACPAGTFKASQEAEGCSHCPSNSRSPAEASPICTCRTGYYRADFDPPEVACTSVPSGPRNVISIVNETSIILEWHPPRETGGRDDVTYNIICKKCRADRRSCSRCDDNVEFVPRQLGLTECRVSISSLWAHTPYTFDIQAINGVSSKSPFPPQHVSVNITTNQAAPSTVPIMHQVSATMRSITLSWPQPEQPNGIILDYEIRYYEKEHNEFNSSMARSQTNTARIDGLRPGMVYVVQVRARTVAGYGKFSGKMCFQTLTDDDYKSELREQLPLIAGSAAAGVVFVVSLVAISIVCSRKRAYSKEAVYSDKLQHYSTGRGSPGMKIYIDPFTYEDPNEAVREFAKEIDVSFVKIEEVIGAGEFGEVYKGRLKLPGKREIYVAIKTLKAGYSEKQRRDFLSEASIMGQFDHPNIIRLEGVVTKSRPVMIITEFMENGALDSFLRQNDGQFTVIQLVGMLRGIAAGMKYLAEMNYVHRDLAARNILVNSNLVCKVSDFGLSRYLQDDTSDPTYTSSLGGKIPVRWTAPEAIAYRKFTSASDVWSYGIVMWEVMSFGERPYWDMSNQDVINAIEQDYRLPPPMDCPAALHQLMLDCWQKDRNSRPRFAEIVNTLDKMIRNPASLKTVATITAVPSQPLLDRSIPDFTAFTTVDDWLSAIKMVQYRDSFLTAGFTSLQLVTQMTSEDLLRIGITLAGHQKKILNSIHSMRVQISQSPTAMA
MERTK, sequence (Q12866 whole entry, looked up): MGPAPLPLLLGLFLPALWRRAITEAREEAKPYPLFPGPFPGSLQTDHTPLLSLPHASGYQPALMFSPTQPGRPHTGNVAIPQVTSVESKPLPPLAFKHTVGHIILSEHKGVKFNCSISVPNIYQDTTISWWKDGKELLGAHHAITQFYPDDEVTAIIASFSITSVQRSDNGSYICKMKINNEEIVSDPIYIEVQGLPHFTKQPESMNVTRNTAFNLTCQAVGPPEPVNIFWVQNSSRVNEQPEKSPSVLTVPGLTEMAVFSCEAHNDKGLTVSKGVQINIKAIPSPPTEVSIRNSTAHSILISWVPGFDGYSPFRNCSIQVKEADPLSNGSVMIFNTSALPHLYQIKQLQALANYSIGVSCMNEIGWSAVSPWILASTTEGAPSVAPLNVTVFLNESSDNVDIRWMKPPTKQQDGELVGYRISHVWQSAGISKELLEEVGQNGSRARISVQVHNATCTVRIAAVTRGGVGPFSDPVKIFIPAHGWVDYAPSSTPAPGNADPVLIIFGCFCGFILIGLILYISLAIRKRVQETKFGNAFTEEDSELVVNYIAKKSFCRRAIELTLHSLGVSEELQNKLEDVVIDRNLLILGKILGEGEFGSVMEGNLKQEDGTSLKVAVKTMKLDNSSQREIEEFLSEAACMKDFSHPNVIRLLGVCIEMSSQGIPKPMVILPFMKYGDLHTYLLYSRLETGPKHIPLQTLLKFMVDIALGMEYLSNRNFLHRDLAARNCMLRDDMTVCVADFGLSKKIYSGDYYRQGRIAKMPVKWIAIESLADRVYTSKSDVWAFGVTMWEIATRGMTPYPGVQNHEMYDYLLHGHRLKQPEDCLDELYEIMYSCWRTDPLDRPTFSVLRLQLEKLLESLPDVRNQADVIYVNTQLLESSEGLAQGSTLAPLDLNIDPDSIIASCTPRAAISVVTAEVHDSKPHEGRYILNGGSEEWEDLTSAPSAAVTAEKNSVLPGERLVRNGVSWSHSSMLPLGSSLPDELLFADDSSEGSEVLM
FGFR3, sequence (P22607 whole entry, looked up): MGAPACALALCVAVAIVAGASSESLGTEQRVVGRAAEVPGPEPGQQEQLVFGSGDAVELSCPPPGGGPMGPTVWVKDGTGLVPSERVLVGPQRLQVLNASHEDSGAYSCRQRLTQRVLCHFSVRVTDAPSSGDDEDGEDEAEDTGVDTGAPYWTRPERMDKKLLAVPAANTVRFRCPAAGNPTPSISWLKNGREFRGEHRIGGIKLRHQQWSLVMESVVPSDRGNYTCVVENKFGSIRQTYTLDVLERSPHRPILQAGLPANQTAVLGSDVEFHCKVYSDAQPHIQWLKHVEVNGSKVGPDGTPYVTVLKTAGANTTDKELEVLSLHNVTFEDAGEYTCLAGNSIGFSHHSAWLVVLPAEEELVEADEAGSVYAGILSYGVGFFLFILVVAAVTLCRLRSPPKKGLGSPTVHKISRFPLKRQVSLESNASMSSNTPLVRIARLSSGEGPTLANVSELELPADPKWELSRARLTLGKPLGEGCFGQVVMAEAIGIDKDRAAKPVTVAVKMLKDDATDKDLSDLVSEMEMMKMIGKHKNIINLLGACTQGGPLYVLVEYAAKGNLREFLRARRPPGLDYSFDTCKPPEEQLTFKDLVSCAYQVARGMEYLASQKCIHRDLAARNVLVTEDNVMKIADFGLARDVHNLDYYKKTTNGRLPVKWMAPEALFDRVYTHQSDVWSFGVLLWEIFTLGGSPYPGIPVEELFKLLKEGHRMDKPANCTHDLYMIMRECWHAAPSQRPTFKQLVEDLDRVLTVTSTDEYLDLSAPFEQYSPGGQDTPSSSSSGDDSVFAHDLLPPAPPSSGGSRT
FGFR1, sequence (P11362 whole entry, looked up): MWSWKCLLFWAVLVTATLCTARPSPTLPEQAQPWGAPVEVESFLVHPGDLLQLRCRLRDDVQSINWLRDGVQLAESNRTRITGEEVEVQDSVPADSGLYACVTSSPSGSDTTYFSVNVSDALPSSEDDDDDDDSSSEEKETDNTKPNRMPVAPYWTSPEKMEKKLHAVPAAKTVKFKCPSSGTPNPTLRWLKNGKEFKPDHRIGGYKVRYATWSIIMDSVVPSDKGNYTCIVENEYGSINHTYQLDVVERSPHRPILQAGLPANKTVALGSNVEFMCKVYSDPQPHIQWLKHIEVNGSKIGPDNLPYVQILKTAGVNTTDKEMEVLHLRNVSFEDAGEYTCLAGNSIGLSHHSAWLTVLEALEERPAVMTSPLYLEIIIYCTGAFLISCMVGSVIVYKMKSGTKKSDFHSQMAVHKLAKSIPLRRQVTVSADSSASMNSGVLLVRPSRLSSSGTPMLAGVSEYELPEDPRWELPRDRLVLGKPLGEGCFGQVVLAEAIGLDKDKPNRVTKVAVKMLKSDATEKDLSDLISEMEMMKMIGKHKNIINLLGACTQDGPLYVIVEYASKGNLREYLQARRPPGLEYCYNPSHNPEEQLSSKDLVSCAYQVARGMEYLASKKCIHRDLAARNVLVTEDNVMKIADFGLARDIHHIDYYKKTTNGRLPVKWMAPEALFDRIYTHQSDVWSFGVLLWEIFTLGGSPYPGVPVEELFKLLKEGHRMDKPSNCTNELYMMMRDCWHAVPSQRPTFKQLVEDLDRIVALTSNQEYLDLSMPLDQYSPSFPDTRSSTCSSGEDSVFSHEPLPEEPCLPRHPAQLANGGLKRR
Fyn, sequence (P06241 whole entry, looked up): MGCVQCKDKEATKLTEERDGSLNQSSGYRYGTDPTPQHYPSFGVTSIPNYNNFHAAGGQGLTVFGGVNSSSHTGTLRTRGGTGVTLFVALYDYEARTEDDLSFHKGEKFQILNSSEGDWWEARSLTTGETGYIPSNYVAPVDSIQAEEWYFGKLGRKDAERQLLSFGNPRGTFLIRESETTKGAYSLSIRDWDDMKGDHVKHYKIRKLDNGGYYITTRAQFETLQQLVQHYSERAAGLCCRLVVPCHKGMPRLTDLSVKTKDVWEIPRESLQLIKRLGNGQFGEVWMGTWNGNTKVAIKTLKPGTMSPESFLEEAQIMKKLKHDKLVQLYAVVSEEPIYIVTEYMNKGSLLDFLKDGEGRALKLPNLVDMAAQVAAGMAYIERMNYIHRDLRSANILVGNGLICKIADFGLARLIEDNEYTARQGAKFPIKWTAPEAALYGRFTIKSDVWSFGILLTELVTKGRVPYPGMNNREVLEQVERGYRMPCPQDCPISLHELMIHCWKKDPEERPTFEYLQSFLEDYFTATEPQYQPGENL

SH2 binding enrichment (Grb2 SH2) | SH2 binding enrichment (SHP2-C SH2) | SH2 binding enrichment (c-Src SH2) | Sequence | phosphorylation enrichment (AncSZ) | phosphorylation enrichment (EPHB1) | phosphorylation enrichment (EPHB2) | phosphorylation enrichment (FGFR1) | phosphorylation enrichment (FGFR3) | phosphorylation enrichment (Fer (mouse)) | phosphorylation enrichment (Fes) | phosphorylation enrichment (Fyn) | phosphorylation enrichment (Hck) | phosphorylation enrichment (Jak2) | phosphorylation enrichment (MERTK) | phosphorylation enrichment (c-Abl (mouse)) | phosphorylation enrichment (c-Src)
29.8 | 1.13 | 5.68 | PFSNSYENSLI [EPOR_Y489_P488S_YF] | 1.4 | 1.15 | 0.498 | 0.577 | 1.51 | 0.809 | 1.21 | 0.727 | 0.78 | 1.16 | 0.402 | 0.877 | 0.862
0.811 | 0.753 | 0.554 | CEHRGCLYLAI [TEK_Y897_Y897C] | 1.04 | 0.556 | 0.506 | 0.405 | 0.685 | 0.44 | 1.09 | 0.372 | 0.466 | 1.05 | 0.661 | 0.671 | 1.05
0.991 | 0.991 | 2.71 | RHFSSYSQMEN [PKP1_Y120_R116H] | 1.02 | 0.632 | 0.768 | 0.776 | 0.688 | 0.603 | 1 | 0.551 | 0.551 | 0.545 | 0.562 | 0.413 | 0.414
0.749 | 0.588 | 0.47 | IRRSSYEDSSL [HNF4A_Y144_T139I] | 0.705 | 0.444 | 0.543 | 0.411 | 0.487 | 0.526 | 0.758 | 0.481 | 0.53 | 0.65 | 0.485 | 0.824 | 0.591
0.791 | 0.914 | 0.604 | RHSGSYLVTSV [APC_Y2838] | 0.759 | 0.505 | 0.559 | 0.438 | 0.451 | 0.51 | 0.863 | 0.431 | 0.616 | 0.963 | 0.682 | 0.611 | 0.463
0.814 | 0.749 | 0.503 | ANARMYGVLPW [PLP1_Y207_D203N] | 0.74 | 0.513 | 0.676 | 0.462 | 0.506 | 0.474 | 0.783 | 4.99 | 6.06 | 0.616 | 0.734 | 0.846 | 3.85
0.731 | 0.523 | 0.391 | CKLYQYYLDHL [ATRX_Y1849] | 1.74 | 2.18 | 1.54 | 1.44 | 1.54 | 0.758 | 1.65 | 0.587 | 0.698 | 1.54 | 2.12 | 1.17 | 2.05
0.96 | 0.955 | 0.572 | NTDETYCIDNK [TUBB3_Y200_E205K] | 1.23 | 0.721 | 0.577 | 0.53 | 0.783 | 0.729 | 1.34 | 0.781 | 0.592 | 1.37 | 0.407 | 0.834 | 0.976
0.744 | 0.767 | 0.541 | AEMKRYSESSS [RAI14_Y869_A870S] | 0.524 | 0.308 | 0.329 | 0.681 | 0.523 | 0.38 | 0.638 | 0.503 | 0.37 | 0.678 | 0.337 | 0.43 | 0.382
0.829 | 0.536 | 0.31 | AISEGYKDFRA [CDA_Y79_V75I] | 0.617 | 0.353 | 0.415 | 0.425 | 0.524 | 0.313 | 0.638 | 0.323 | 0.405 | 0.617 | 0.382 | 0.622 | 0.499
1.1 | 0.736 | 0.641 | GHRPVYSEDEQ [CHST6_Y362_Y358H] | 1.05 | 0.429 | 0.523 | 0.495 | 0.707 | 0.501 | 1.13 | 0.474 | 0.564 | 0.894 | 0.437 | 0.757 | 0.48
1.2 | 0.595 | 0.717 | LIDSSYLTPTA [GREB1L_Y1063_R1066P] | 0.919 | 0.569 | 0.498 | 0.596 | 0.825 | 0.423 | 1.15 | 0.409 | 0.684 | 0.8 | 0.511 | 0.871 | 0.421
0.805 | 0.981 | 0.59 | IAINKYEVSLI [MYO7A_Y2136_G2137E] | 0.89 | 0.505 | 0.562 | 0.445 | 0.635 | 0.486 | 0.99 | 0.514 | 0.493 | 0.851 | 0.371 | 0.598 | 0.451
0.936 | 0.629 | 0.484 | PSSNLYYRCLT [CNGA3_Y168_W171C] | 1.68 | 1.23 | 0.78 | 1.9 | 1.87 | 0.655 | 1.06 | 0.883 | 1.89 | 2.31 | 3.88 | 0.742 | 1.05
0.713 | 0.641 | 0.382 | DGSALYTGSAL [COL6A3_Y524] | 0.612 | 0.418 | 0.439 | 0.313 | 0.474 | 0.643 | 0.638 | 0.84 | 0.858 | 0.591 | 0.404 | 0.459 | 0.536
0.834 | 0.763 | 1.66 | ARSHIYTFASC [MEFV_Y741] | 0.932 | 0.488 | 0.533 | 0.491 | 0.653 | 0.563 | 1 | 1.41 | 0.671 | 0.866 | 0.808 | 0.849 | 1.3
